Data published in patent publication US11491212.

Factor X (FX), P00742, sequence (P00742 whole entry, looked up): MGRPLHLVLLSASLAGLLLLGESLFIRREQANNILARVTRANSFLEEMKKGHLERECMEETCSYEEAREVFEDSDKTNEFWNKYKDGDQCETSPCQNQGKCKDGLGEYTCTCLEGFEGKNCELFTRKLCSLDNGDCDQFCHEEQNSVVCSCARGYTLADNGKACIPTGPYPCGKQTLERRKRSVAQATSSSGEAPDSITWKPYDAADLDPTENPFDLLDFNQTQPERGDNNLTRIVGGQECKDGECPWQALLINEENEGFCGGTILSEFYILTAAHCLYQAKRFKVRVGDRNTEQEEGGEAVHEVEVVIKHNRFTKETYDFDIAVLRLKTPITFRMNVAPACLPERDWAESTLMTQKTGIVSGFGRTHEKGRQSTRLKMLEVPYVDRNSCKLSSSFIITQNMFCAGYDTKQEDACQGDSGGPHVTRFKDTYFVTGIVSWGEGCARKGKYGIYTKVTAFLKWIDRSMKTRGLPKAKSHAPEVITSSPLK
Factor X, P00742, sequence (P00742 whole entry, looked up): as above

| Protein | % of WT kcat/KM (Factor X, P00742) | kcat/KM (Factor X, P00742) | kcat (s^-1), activation of FX by FIXa in the Xase complex (Factor X (FX), P00742) |
| --- | --- | --- | --- |
| FIXa Y155F/R318Y/T343R/R403E (protein) chain 1: not shown chain 2: not shown | 154% | 7.1e+07 M⁻¹ s⁻¹ | 5 s⁻¹ |
| FIXa K228N/K247N/N249S/R318Y/T343R/R403E/E410N (protein) chain 1: not shown chain 2: not shown | 153% | 7.1e+07 M⁻¹ s⁻¹ | 8.1 s⁻¹ |
| FIXa K228N/K247N/N249S/R318Y/R338E/T343R/R403E (protein) chain 1: not shown chain 2: not shown | 636% | 2.9e+08 M⁻¹ s⁻¹ | 10.9 s⁻¹ |
| FIXa Y155F/K247N/N249S/T343R/E410N (protein) chain 1: not shown chain 2: not shown | 599% | 2.8e+08 M⁻¹ s⁻¹ | 7.9 s⁻¹ |
| FIXa Y155F/R338E/T343R/E410N (protein) chain 1: not shown chain 2: not shown | 761% | 3.5e+08 M⁻¹ s⁻¹ | 6 s⁻¹ |
| FIXa K228N/K247N/N249S/R318Y/R338E/T343R/E410N (protein) chain 1: not shown chain 2: not shown | 278% | 1.3e+08 M⁻¹ s⁻¹ | 4.7 s⁻¹ |
| FIXa Y155F/T343R/R403E/E410N (protein) chain 1: not shown chain 2: not shown | 321% | 1.5e+08 M⁻¹ s⁻¹ | 6.6 s⁻¹ |
| FIXa K228N/R318Y/R338E/T343R/R403E/E410N (protein) chain 1: not shown chain 2: not shown | 593% | 2.7e+08 M⁻¹ s⁻¹ | 10.5 s⁻¹ |
| FIXa Y155F/R318Y/T343R/E410N (protein) chain 1: not shown chain 2: not shown | 326% | 1.5e+08 M⁻¹ s⁻¹ | 5 s⁻¹ |
| FIXa K247N/N249S/R318Y/R338E/T343R (protein) chain 1: not shown chain 2: not shown | 840% | 3.9e+08 M⁻¹ s⁻¹ | 8 s⁻¹ |
| FIXa Y155F/K247N/N249S/R318Y/R338E/T343R (protein) chain 1: not shown chain 2: not shown | 772% | 3.6e+08 M⁻¹ s⁻¹ | 8.5 s⁻¹ |
| FIXa R318Y/T343R/E410N (protein) chain 1: not shown chain 2: not shown | 135% | 6.2e+07 M⁻¹ s⁻¹ | 3.2 s⁻¹ |
| FIXa Y155F/K247N/N249S/R403E/E410N (protein) chain 1: not shown chain 2: not shown | 53% | 2.4e+07 M⁻¹ s⁻¹ | 2.7 s⁻¹ |
